Measured values: paper PMC4263446 (Molecular Biology of the Cell, 2014)

Target: the molecule itself
Assay: non-reducing SDS-PAGE

B1: Flag-CD73L (canonical ecto-5′-nucleotidase, long protein isoform of CD73) (enzyme, human, UniProt P21589-1 27-549, looked up)
chain: WELTILHTNDVHSRLEQTSEDSSKCVNASRCMGGVARLFTKVQQIRRAEPNVLLLDAGDQYQGTIWFTVYKGAEVAHFMNALRYDAMALGNHEFDNGVEGLIEPLLKEAKFPILSANIKAKGPLASQISGLYLPYKVLPVGDEVVGIVGYTSKETPFLSNPGTNLVFEDEITALQPEVDKLKTLNVNKIIALGHSGFEMDKLIAQKVRGVDVVVGGHSNTFLYTGNPPSKEVPAGKYPFIVTSDDGRKVPVVQAYAFGKYLGYLKIEFDERGNVISSHGNPILLNSSIPEDPSIKADINKWRIKLDNYSTQELGKTIVYLDGSSQSCRFRECNMGNLICDAMINNNLRHTDEMFWNHVSMCILNGGGIRSPIDERNNGTITWENLAAVLPFGGTFDLVQLKGSTLKKAFEHSVHRYGQSTGEFLQVGGIHVVYDLSRKPGDRVVKLDVLCTKCRVPSYDPLKMDEVYKVILPNFLANGGDGFQMIKDELLRHDSGDQDINVVSTYISKMKVIYPAVEGRIKFS
modifications: glycosylated (Asn-311/333/403)
stoichiometry N: 2
